Experimental data as given in US20130217616.

Tests used:
[1] = biological target: recombinant, full-length, non-tagged mannose-binding lectin (rMBL), P11226
[2] = biological target: recombinant human Ficolin-3 (rFicolin-3), O75636
Sequence of recombinant human Ficolin-3 (rFicolin-3), O75636 (O75636 24-299): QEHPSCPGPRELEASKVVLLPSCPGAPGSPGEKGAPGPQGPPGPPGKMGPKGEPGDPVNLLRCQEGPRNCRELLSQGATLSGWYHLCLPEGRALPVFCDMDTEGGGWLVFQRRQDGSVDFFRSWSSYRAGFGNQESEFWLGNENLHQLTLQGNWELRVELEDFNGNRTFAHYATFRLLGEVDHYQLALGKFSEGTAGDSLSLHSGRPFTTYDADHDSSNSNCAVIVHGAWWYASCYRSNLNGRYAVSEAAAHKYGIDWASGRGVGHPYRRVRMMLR

Sequence of recombinant, full-length, non-tagged mannose-binding lectin (rMBL), P11226 (P11226 21-248): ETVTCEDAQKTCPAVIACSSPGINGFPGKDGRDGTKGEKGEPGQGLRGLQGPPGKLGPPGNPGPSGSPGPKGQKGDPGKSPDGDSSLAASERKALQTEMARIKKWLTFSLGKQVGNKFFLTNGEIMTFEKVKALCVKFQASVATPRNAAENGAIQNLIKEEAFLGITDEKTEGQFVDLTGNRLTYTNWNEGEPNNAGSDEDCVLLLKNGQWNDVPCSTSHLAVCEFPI

B1: recombinant human MBL-Associated Serine Protease-1 (rMASP-1) (protein)
chain: HTVELNNMFGQIQSPGYPDSYPSDSEVTWNITVPDGFRIKLYFMHFNLESSYLCEYDYVKVETEDQVLATFCGRETTDTEQTPGQEVVLSPGSFMSITFRSDFSNEERFTGFDAHYMAVDVDECKEREDEELSCDHYCHNYIGGYYCSCRFGYILHTDNRTCRVECSDNLFTQRTGVITSPDFPNPYPKSSECLYTIELEEGFMVNLQFEDIFDIEDHPEVPCPYDYIKIKVGPKVLGPFCGEKAPEPISTQSHSVLILFHSDNSGENRGWRLSYRAAGNECPELQPPVHGKIEPSQAKYFFKDQVLVSCDTGYKVLKDNVEMDTFQIECLKDGTWSNKIPTCKIVDCRAPGELEHGLITFSTRNNLTTYKSEIKYSCQEPYYKMLNNNTGIYTCSAQGVWMNKVLGRSLPTCLPVCGLPKFSRKLMARIFNGRPAQKGTTPWIAMLSHLNGQPFCGGSLLGSSWIVTAAHCLHQSLDPEDPTLRDSDLLSPSDFKIILGKHWRLRSDENEQHLGVKHTTLHPQYDPNTFENDVALVELLESPVLNAFVMPICLPEGPQQEGAMVIVSGWGKQFLQRFPETLMEIEIPIVDHSTCQKAYAPLKKKVTRDMICAGEKEGGKDACAGDSGGPMVTLNRERGQWYLVGTVSWGDDCGKKDRYGVYSYIHHNKDWIQRVTGVRN
[1]
  activation of C3 and C4: MASP-1 were able to activate both the C3 and C4 complement proteins

B2: recombinant human MBL-Associated Serine Protease-3 (rMASP-3) (protein)
chain: HTVELNNMFGQIQSPGYPDSYPSDSEVTWNITVPDGFRIKLYFMHFNLESSYLCEYDYVKVETEDQVLATFCGRETTDTEQTPGQEVVLSPGSFMSITFRSDFSNEERFTGFDAHYMAVDVDECKEREDEELSCDHYCHNYIGGYYCSCRFGYILHTDNRTCRVECSDNLFTQRTGVITSPDFPNPYPKSSECLYTIELEEGFMVNLQFEDIFDIEDHPEVPCPYDYIKIKVGPKVLGPFCGEKAPEPISTQSHSVLILFHSDNSGENRGWRLSYRAAGNECPELQPPVHGKIEPSQAKYFFKDQVLVSCDTGYKVLKDNVEMDTFQIECLKDGTWSNKIPTCKIVDCRAPGELEHGLITFSTRNNLTTYKSEIKYSCQEPYYKMLNNNTGIYTCSAQGVWMNKVLGRSLPTCLPECGQPSRSLPSLVKRIIGGRNAEPGLFPWQALIVVEDTSRVPNDKWFGSGALLSASWILTAAHVLRSQRRDTTVIPVSKEHVTVYLGLHDVRDKSGAVNSSAARVVLHPDFNIQNYNHDIALVQLQEPVPLGPHVMPVCLPRLEPEGPAPHMLGLVAGWGISNPNVTVDEIISSGTRTLSDVLQYVKLPVVPHAECKTSYESRSGNYSVTENMFCAGYYEGGKDTCLGDSGGAFVIFDDLSQRWVVQGLVSWGGPEECGSKQVYGVYTKVSNYVDWVWEQMGLPQSVVEPQVER
[1]
  activation of C3 and C4: MASP-3 were able to inhibit the activation of both the C3 and C4 complement proteins

B3: recombinant human MBL-Associated Serine Protease-2 (rMASP-2) (protein)
chain: TPLGPKWPEPVFGRLASPGFPGEYANDQERRWTLTAPPGYRLRLYFTHFDLELSHLCEYDFVKLSSGAKVLATLCGQESTDTERAPGKDTFYSLGSSLDITFRSDYSNEKPFTGFEAFYAAEDIDECQVAPGEAPTCDHHCHNHLGGFYCSCRAGYVLHRNKRTCSALCSGQVFTQRSGELSSPEYPRPYPKLSSCTYSISLEEGFSVILDFVESFDVETHPETLCPYDFLKIQTDREEHGPFCGKTLPHRIETKSNTVTITFVTDESGDHTGWKIHYTSTAQPCPYPMAPPNGHVSPVQAKYILKDSFSIFCETGYELLQGHLPLKSFTAVCQKDGSWDRPMPACSIVDCGPPDDLPSGRVEYITGPGVTTYKAVIQYSCEETFYTMKVNDGKYVCEADGFWTSSKGEKSLPVCEPVCGLSARTTGGRIYGGQKAKPGDFPWQVLILGGTTAAGALLYDNWVLTAAHAVYEQKHDASALDIRMGTLKRLSPHYTQAWSEAVFIHEGYTHDAGFDNDIALIKLNNKVVINSNITPICLPRKEAESFMRTDDIGTASGWGLTQRGFLARNLMYVDIPIVDHQKCTAAYEKPPYPRGSVTANMLCAGLESGGKDSCRGDSGGALVFLDSETERWFVGGIVSWGSMNCGEAGQYGVYTKVINYIPWIENIISDF
[2]
  C4 deposition (AcBSA/rFicolin-3, Ficolin-3 deficient serum): Application of rMASP-2 resulted in a strong positive dose dependent enhancement of the C4 deposition via both the Ficolin-3 and MBL activation pathways
[1]
  C4 deposition (mannan/rMBL, MBL deficient serum): Application of rMASP-2 resulted in a strong positive dose dependent enhancement of the C4 deposition via both the Ficolin-3 and MBL activation pathways
  activation of C3 and C4: MASP-2 were able to strongly activate both the C3 and C4 complement proteins
